# From patent publication US6093692A, “Method and compositions for lipidization of hydrophilic molecules” (The University of Southern California, priority 1997, dated 2000)
# B1: BBIssPal: the palmityl disulfide conjugate of BBI (conjugate, UniProt P01055 40-110, looked up)
# Bowman-Birk type proteinase …: DDESSKPCCDQCACTKSNPPQCRCSDMRLNSCHSACKSCICALSYPAQCFCVDITDFCYEPCKPSEDDKEN
# modifications: palmityl disulfide; 125I
# notes: the palmityl disulfide conjugate of BBI
# What was measured:
# [1] = test system: Caco-2 cells; format: cell-based, Human
# Procedure: Human colon carcinoma cells (Caco-2) were detached from 25 cm^2 stock culture flasks using a 10 min incubation at 37° C. with 0.5 ml of a trypsin/EDTA solution (0.5% trypsin, 5.3 mM EDTA). The cells were then suspended in 5 ml of Dulbecco's minimum essential medium, supplemented with 15% fetal bovine serum (FBS), L-glutamine (1%), and essential amino acids (1%), and counted using a coulter counter.
# Radioiodination of BBI and BBIssPal was carried out using the chloramine-T method [McConahey, P. C. and Dixon, F. J., Meth. Enzymol., 70:221-247 (1980)]. Confluent, 14-day old cell monolayers were washed once with, and then incubated in, serum-free Dulbecco medium at 37° C. for 30 min. Subsequently, the incubation medium was replaced with serum free medium containing ^125 I-BBI (10 μg/ml), either as native-BBI or as BBIssPal or BBIssOleic, and the monolayers were incubated for a further 60 min at 37° C. The monolayers were then washed three times with ice-cold PBS, and then exposed to trypsin (0.5%, EDTA 5.3 mM) for 10 min at 37° C. The detached cells were transferred to tubes, isolated by centrifugation, washed three times using ice-cold PBS, assayed for accumulated radioactivity using a gamma counter, and finally assayed for cell protein using the published method [Lowry, O. H., et al., J. Biol. Chem., 193:265-275 (1951)].
# In some experiments the uptake of reduced ^125 I-BBIssPal into cells was determined. ^125 I-BBIssPal was reduced with DTT (50 mM) at 60° C. for 5 min followed by a further 25 min at 37° C. In control experiments, ^125 I-BBIssPal was exposed in medium to the same temperatures without being exposed to DTT.
# The uptake of ^125 I-BBIssPal in the presence of BSA (fatty acid free) was determined as follows. ^125 I-BBIssPal was incubated with medium containing 0.1% BSA for 30 min at 37° C. before being added to the cell monolayers. In some uptake experiments, BSA was first mixed with a 3-fold molar excess of palmitic acid, and then incubated with the conjugates prior to the experiments. In the experiments where the uptake of ^125 I-BBIssPal was determined in medium containing FBS, the conjugates was simply added to the medium containing the required amount of FBS.
# The cell monolayers were incubated with ^125 I-labeled conjugates at 10 μg/ml for 60 min at 37° C. The results presented are the average of three monolayers ±SEM. The uptake experiments were carried out in Dulbecco medium, in the presence and absence of added FBS.
# The cell uptake of ^125 I-BBI, either as the native protein or as BBIssPal was determined before and after reduction with DTT (50 mM) for 5 min at 60° C. and 25 min at 37° C.
# The uptake experiments were carried out in Dulbecco medium, in the presence and absence of added fatty acid-free BSA (BSA) or fatty acid-loaded BSA (BSA/FA). The results of studies of the uptake of ^125 I-BBI, either as the native-BBI or in conjugated form to palmitic or oleic acid, in Caco-2 cells in the presence of serum-free medium are presented in FIG. 1. The results are shown as the average ng of BBI internalized ±SEM, n=3. The uptake of ^125 I-BBIssPal into the cells was approximately 100-fold higher than that of ^125 I-BBI. […] The difference between the uptake of ^125 I-BBIssPal and ^125 I-BBIssOleic were significant.
# [2] = format: in vitro ADME, hairless mice
# Procedure: Freshly-prepared skins from hairless mice were mounted on small rings. To each mounted skin, a 5 μl sample of ^125 I-labeled BBI or BBIssPal at a concentration of 0.5 mg/ml was applied to an area of 0.38 cm^2. Two pieces of skin were used per treatment. The skins were kept at room temperature (23° C.) in a humidified environment. After 30 minutes, the surface of the skins was first rinsed carefully with PBS; subsequently, the skins were unmounted and soaked twice in 100 ml of PBS. The skins were then blotted with filter papers and counted in a gamma counter. The amount of BBI retained on the skins was calculated using the specific radioactivity of the labeled BBI or BBIssPal. The absorption of BBI and BBIssPal into the mouse skins was 0.14 and 1.6 μg/cm^2, respectively.
molecule,measurement,setting,value
B1,"Internalization, fold over that of BBI",[1],35 fold
same,Reduction of uptake after reduction with DTT,[1],approximately 80%
same,Reduction of uptake by defatted-BSA,[1],82%
same,"Uptake, fold higher than native-BBI",[1],10 fold
same,Increase of BBI absorption into the skin,[2],more than 10 fold
